Molecular target: T1, histone H4 of Xenopus laevis, in the 29N59 nucleosome (Xenopus laevis, UniProt P62799 1-103)
T1 construct: histone H4, Xenopus laevis; Stood within the nucleosome in the cross-linking
Assay: cross-linking; BS3 cross-linking with mass spectrometry (CX-MS): 35 nM FLAG tagged SWI/SNF, 35 nM 29-N-59 nucleosomes, 200 nM Gal4-VP16, 115 μM BS3, room temperature, 2 h
Settings: both partners purified

B1: Snf2, catalytic subunit of yeast SWI/SNF, with a C-terminal double FLAG epitope (enzyme)
chain: MNIPQRQFSNEEVNRCYLRWQHLRNEHGMNAPSVPEFIYLTKVLQFAAKQRQELQMQRQQQGISGSQQNIVPNSSDQAELPNNASSHISASASPHLAPNMQLNGNETFSTSAHQSPIMQTQMPLNSNGGNNMLPQRQSSVGSLNATNFSPTPANNGENAAEKPDNSNHNNLNLNNSELQPQNRSLQEHNIQDSNVMPGSQINSPMPQQAQMQQAQFQAQQAQQAQQAQQAQQAQARLQQGRRLPMTMFTAEQSELLKAQITSLKCLVNRKPIPFEFQAVIQKSINHPPDFKRMLLSLSEFARRRQPTDQNNQSNLNGGNNTQQPGTNSHYNNTNTDNVSGLTRNAPLDSKDENFASVSPAGPSSVHNAKNGTLDKNSQTVSGTPITQTESKKEENETISNVAKTAPNSNKTHTEQNNPPKPQKPVPLNVLQDQYKEGIKVVDIDDPDMMVDSFTMPNISHSNIDYQTLLANSDHAKFTIEPGVLPVGIDTHTATDIYQTLIALNLDTTVNDCLDKLLNDECTESTRENALYDYYALQLLPLQKAVRGHVLQFEWHQNSLLTNTHPNFLSKIRNINVQDALLTNQLYKNHELLKLERKKTEAVARLKSMNKSAINQYNRRQDKKNKRLKFGHRLIATHTNLERDEQKRAEKKAKERLQALKANDEEAYIKLLDQTKDTRITHLLRQTNAFLDSLTRAVKDQQKYTKEMIDSHIKEASEEVDDLSMVPKMKDEEYDDDDDNSNVDYYNVAHRIKEDIKKQPSILVGGTLKDYQIKGLQWMVSLFNNHLNGILADEMGLGKTIQTISLLTYLYEMKNIRGPYLVIVPLSTLSNWSSEFAKWAPTLRTISFKGSPNERKAKQAKIRAGEFDVVLTTFEYIIKERALLSKVKWVHMIIDEGHRMKNAQSKLSLTLNTHYHADYRLILTGTPLQNNLPELWALLNFVLPKIFNSVKSFDEWFNTPFANTGGQDKIELSEEETLLVIRRLHKVLRPFLLRRLKKDVEKELPDKVEKVVKCKMSALQQIMYQQMLKYRRLFIGDQNNKKMVGLRGFNNQIMQLKKICNHPFVFEEVEDQINPTRETNDDIWRVAGKFELLDRILPKLKATGHRVLIFFQMTQIMDIMEDFLRYINIKYLRLDGHTKSDERSELLRLFNAPDSEYLCFILSTRAGGLGLNLQTADTVIIFDTDWNPHQDLQAQDRAHRIGQKNEVRILRLITTNSVEEVILERAYKKLDIDGKVIQAGKFDNKSTSEEQEALLRSLLDAEEERRKKRESGVEEEEELKDSEINEILARNDEEMAVLTRMDEDRSKKEEELGVKSRLLEKSELPDIYSRDIGAELKREESESAAVYNGRGARERKTATYNDNMSEEQWLRQFEVSDDEKNDKQARKQRTKKEDKSEAIDGNGEIKGENIDADNDGPRINNISAEDRADTDLAMNDDDFLSKKRKAGRPRGRPKKVKLEGSENSEPPALESSPVTGDNSPSEDFMDIPKPRTAGKTSVKSARTSTRGRGRGRGRGRGRGRGRGRPPKARNGLDYVRTPAAATSPIDIREKVAKQALDLYHFALNYENEAGRKLSDIFLSKPSKALYPDYYMIIKYPVAFDNINTHIETLAYNSLKETLQDFHLIFSNARIYNTEGSVVYEDSLELEKVVTKKYCEIMGDNSQLDFTEFDEQYGTRPLVLPPVVTSSVAESFTDEADSSMTEASV
notes: Snf2, catalytic subunit of SWI/SNF, S. cerevisiae; also called WT; SNF2-2FLAG; source: S. cerevisiae, SNF2-2FLAG in a Δsnf2 strain; not shown: FLAG x2, C-terminal, kept
Does B1 bind?
Result: binds
